According to the supplement of paper PMC10567573:

B1: SCNN1D (parent)
chain: RRPSPVLRHLELLDEFARENIDSL
B2: PTPLAD1 (parent)
chain: YINFRHLYKQRRRRYGQKKKKIH

Variants of: B1
Test: protein stability index of a GFP-peptide fusion (GPS, HEK-293T) (PSI 1-6); higher = more stable
Settings: c terminus: a fixed tail appended
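Further: lentivirally expressed fusions sorted by FACS into six bins by GFP to DsRed ratio, PSI derived from sequencing read proportions per bin multiplied by bin number.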

Protein stability index of substitutions, site by site:
S23: Q 2.27 | R 3.44 | P 2.99 | A 2.07 | C 2.5 | E 2.92 | W 1.32 | L 2.72 | F 1.74 | G 3.33 | K 3.56 | N 2.94 | H 2.7 | V 2.45 | T 2.74 | Y 2.46 | M 2.56 | D 2.57 | I 2.26
N20: L 2.17 | R 2.72 | V 2.54 | W 2.85 | A 2.35 | E 1.88 | I 1.74 | C 2.33 | Q 2.08 | T 1.93 | K 3.34 | P 3.04 | S 2.36 | M 1.77 | G 2.88 | F 2.52 | Y 2.07 | D 3.65 | H 1.85
L24: Y 2.55 | Q 3.23 | I 2.46 | W 2.06 | F 2.07 | E 3.25 | S 3.04 | M 2.4 | N 3.29 | T 3.3 | G 3.06 | P 3.19 | A 3.52 | V 2.67 | K 3.29 | R 3.17 | H 2.88 | D 3.15 | C 2.73
I21: R 2.96 | P 4.41 | L 2.95 | E 3.27 | H 3.61 | N 2.81 | S 3.85 | Q 3.59 | C 2.43 | W 1.87 | T 2.98 | A 3.04 | G 3.38 | D 3.36 | M 2.89 | F 2.74 | K 3.36 | V 2.87 | Y 2.34
D22: Q 2.47 | F 1.57 | T 2.18 | R 2.76 | L 1.55 | G 2.41 | A 2.97 | E 2.99 | K 2.97 | H 2.87 | P 2.22 | Y 1.8 | W 1.68 | N 3.12 | I 2.15 | M 1.47 | V 2.03 | C 1.7 | S 2.42
E19: F 2.46 | H 2.5 | V 2.88 | G 3.88 | P 2.72 | N 2.89 | L 2.52 | I 2.5 | T 3.16 | W 1.82 | K 2.74 | S 2.74 | M 2.88 | Y 2.39 | R 2.61 | Q 2.68

Variants of: B2
Test: as above
Settings: c terminus: native

Protein stability index, by site and new letter:
K9: I 2.26 | S 2.6 | L 1.55 | A 3.21 | P 2.27 | T 2.12 | C 1.83 | N 2.8 | G 1.95 | H 2.17 | V 1.91 | R 3.03 | E 2.03 | W 2.45 | D 3.3 | Y 2.6 | Q 1.92
R5: N 1.57 | E 3.34 | D 2.02 | T 2.38 | P 2.49 | G 1.38 | C 1.45 | A 2.93 | Y 2.37 | Q 2.3 | M 1.59 | L 1.79 | I 1.53 | F 2.14 | H 1.8 | S 1.17 | W 1.55 | K 2.51
I2: P 2.9 | K 2.27 | S 2.53 | R 2.05 | M 2 | F 3.06 | A 2.7 | L 3.44 | Q 3.45 | Y 2.1 | C 2.2 | D 3.45 | G 2.19 | N 3.6 | H 1.29 | V 1.97
F4: H 3.71 | M 1.74 | N 2.29 | K 3.29 | E 3.23 | D 3.02 | G 1.9 | C 2.03 | L 2.87 | Y 1.99 | S 3.2 | I 2.43 | P 1.64 | W 1.1 | Q 2.77 | R 2.96 | T 2.01
Q10: R 2.26 | A 2.59 | S 1.7 | E 1.96 | L 2.14 | P 1.66 | C 2.22 | Y 2.06 | H 2.27 | V 1.47 | K 2 | I 1.3 | F 2.15 | T 2.29 | W 1.8 | M 1.96 | G 1.92 | D 1.88
H6: V 2.06 | Y 1.88 | K 2.44 | F 1.54 | P 1.7 | M 1.75 | T 2.02 | W 1.75 | S 1.84 | G 1.75 | E 1.73 | L 2.3 | C 2.14 | A 1.81
R14: I 1.6 | A 2.57 | E 1.78 | H 1.96 | K 2.22 | G 2.47 | F 2.16 | L 2.34
Y8: G 2.03 | N 2.72 | A 2.52 | K 2.5 | L 1.76 | S 1.95 | W 2.9 | I 1.56 | E 2.18 | T 1.76 | R 2.2 | C 2.01 | H 2.31 | P 2.81 | D 3.25
R13: S 1.41 | A 1.7 | I 1.9 | F 2.49 | D 1.37 | T 1.75 | N 1.25 | Q 1.91 | Y 2.28 | H 2.4 | L 2.3 | K 1.45 | G 1.41 | P 3.64 | V 2.13 | E 2.09
N3: I 1.58 | W 1.37 | Q 1.29 | T 2.31 | E 1.61 | A 1.9 | P 2.09 | H 2.52 | S 2.68 | K 1.97 | R 4.4 | L 2.72 | Y 1.71 | F 2.51 | C 1.57 | D 2.39 | V 1.61
R12: F 1.62 | K 1.91 | L 1.25 | W 2.15 | P 1.96 | G 2.92 | S 2.18 | A 1.44 | I 2.44 | E 1.58 | T 3.06 | Y 2.01 | D 2.24 | C 1.55 | M 2.44 | N 2.05 | H 1.93 | V 3.11 | Q 2.26
R11: S 2.3 | D 1.39 | A 1.72 | N 2.91 | P 2.84 | Q 2.37 | L 1.61 | G 2.54 | C 1.58 | F 1.73 | K 1.65 | Y 2.61 | T 2.02 | H 2.15 | M 1.32
Y1: C 1.59 | I 1.17 | E 2.5 | A 2.93 | Q 2.24 | K 1.94 | T 2.25 | P 1.93 | V 2.1 | L 1.79 | S 3.15 | R 1.35 | D 3.48 | W 2.96 | H 2.9 | N 2.97 | G 2.01
L7: Q 2.24 | P 2.92 | A 2.01 | F 1.41 | G 2.68 | Y 2.29 | I 1.94 | S 2.04 | D 3.07 | M 2.31 | R 2.77 | V 2.93 | N 2.72 | E 2.79 | T 2.26 | H 2.31
